For experiment [1], the system named is cbfal binding to osteocalcin promoter in MG63 cells. In words: cbfal binding to osteocalcin promoter site, electrophoretic mobility shift assay. Type of experiment: cell-based, human. The protocol:
FIG. 17A show cells treated with 2 μg/ml of purified mim-1 for 0, 10, 30, 60, 120, and 240 min washed, lysed and nuclear extracts prepared. A 27 bp oligonucleotide from the osteocalcin proximal cbfal binding site was 5′ end labeled with γ^32P-ATP by T4 kinase. Equivalent amounts of nuclear extracts were incubated with the probe for 30 min and samples resolved on a 5% gel, fixed, dried and binding visualized by autoradiography.
Cells were treated with 2 μg/ml of purified mim-1 for 0, 10, 30, 60, 120, and 240 min, washed, lysed and nuclear extracts prepared. A 27 bp oligonucleotide from the osteocalcin proximal cbfal binding site was 5′ end labeled with ^32P-ATP by T4 kinase. Equivalent amounts of nuclear extracts were incubated with the probe for 30 min and samples resolved on a 5% gel, fixed, dried and binding visualized by autoradiography for specific binding.
Similarly, cells were treated with 0, 0.02, 0.3 and 2.0 μg/ml of mim-1 for 2 hrs and mobility shifts done as discussed.
For orientation: A gel shift assay detects complexes by their altered migration in electrophoresis.

For experiment [2], the system named is Vitamin D receptor binding to the VDRE in MG63 cells. The experiment is described as follows: Vitamin D receptor binding to the VDRE, electrophoretic mobility shift assay. Type of experiment: cell-based, human. To be noted: 2 μg/ml mim-1, absence of added 1,25(OH)2 D3. The protocol:
Competitive displacement (CD) of vitamin D receptor interaction by 100× of cold probe. […] CD is competitive displacement as in FIG. 18A and NS is incubaton with 100× NonSpecific probe (vitellogenin estrogen response element), both were included as controls with 2 hr mim-1 extracts.
Double stranded oligonucleotide probe, corresponding to the VDRE from the human osteocalcin promoter, is ^32P-labeled with T4 kinase and incubated with nuclear extracts from MG-63 cells treated with 2 μg/ml of mim-1 for 0, 10, 30, 60 and 120 minutes, respectively. Vitamin D receptor interaction was displaced competitively by 100× of cold probe. The cells were then treated with mim-1 for 2 to 3 hrs and VDR/VDRE supershifted with a 1:5 or 1:10 dilution of VDR polyclonal antibody 4707. Competitive displacement with cold probe and incubaton with 100× vitellogenin estrogen response element as a non-specific probe were included as […] controls with 2 hr mim-1 extracts. VDR/VDRE from MG63 cells was compared to recombinant VDR heterodimer (rVDRhd).

In a further experiment the test system is human bone marrow cells. The experiment is described as follows: FACS analysis of human bone marrow cell cultures (CD14+). To be noted: 2 μg/ml mim-1, 3 days. It is filed as cell-based. The protocol:
Human bone marrow cells were cultured in IMDM with GM-CSF (50 ng/ml), IL3 (10 ng/ml) and 20 ng/ml SCF (controls) for 3 days −/+2 […] mim-1 and analyzed by FACS analysis. The remaining cells were cultured in colony formation assays an additional 14 days with the same growth factors minus or plus 2 μg/ml mim-1. Data is the average −/+ SEM of 3 separate experiments.
Human bone marrow cells were cultured in IMDM with GM-CSF (50 ng/ml), IL3 (10 ng/ml) and […] SCF (controls) for 3 days with or without 2 μg/ml mim-1. The cells were analyzed by FACS analysis. The remaining cells were cultured in colony formation assays an additional 14 days with the same growth factors with or without 2 μg/ml mim-1.
Background: In flow cytometry, cells or beads pass a laser one at a time.

The next experiment relates to MC3T3-E1 cells. The experiment is described as follows: In vitro matrix mineralization (VonKossa staining, total calcium). Type of experiment: cell-based. To be noted: 16 days. The method, then: MC3T3-E1 cells (2.5×10^4 cells/well) were cultured in DMEM/F12 plus 1% FBS in the presence of 10 mM glycerophosphate, 50 μg/ml ascorbic acid and either, 0, 3 or 15 nM (FIGS. 19A–C, respectively) of purified mim-1 for 16 days. […] 200× magnification, data is representative of n=2 experiments. VonKossa staining was confirmed by measuring total calcium in each well. Calcium was acid hydrolyzed, neutralized and measured on a Kodak Ektachem DTSC II and the results illustrated in the bar graph at the right. Calcium measurements are representative single determinations from 2 separate experiments.
MC3T3-E1 cells, seeded at 2.5×10^4 cells/well, were cultured in DMEM/F12 plus 1% FBS in the presence of 10 mM glycerophosphate, 50 μg/ml ascorbic acid and either 0, 3 or 15 nM of purified mim-1 for 16 days. […] VonKossa staining was confirmed by measuring total calcium in each well. The calcium was acid hydrolyzed, neutralized and measured on a Kodak Ektachem DTSC II.

For another experiment, the system named is mesenchymal stem cells. In words: Cell proliferation of osteoblast precursor cells. Type of experiment: cell-based. The settings on record: concentrations up to 2 μg/ml.
The subject of experiment [3] is mesenchymal stem cells (osteoblast precursors). In words: Transwell migration assay of calcein-loaded mesenchymal stem cells. Type of experiment: cell-based. The protocol:
Mesenchymal stem cells were loaded in the presence of 5 μM calcein in αMEM, and the cells washed twice with media. Cells were plated at 10,000 cells/well in the upper well of Neuroprobe transwell plates. The concentration dependence of mim-1 in migration assays was determined in the transwell migration assay with the indicated concentrations of mim-1 in the bottom chamber. Cells were cultured for 4 hours at 37° C. in a humidified chamber with 5% CO2. Remaining cells were scraped from the upper well and removed. Migration was measured on a fluorescence plate-reader which measures fluorescence in the bottom well and migration was quantified by comparisons with a standard curve generated by serial dilutions of calcein loaded cells plated directly in the bottom chamber. Data is from a single experiment performed in quadruplicate.

For experiment [4], the system named is p42/44 MAP-kinase in MG63 cells. In words: p42/p44 MAP kinase activation, phospho-specific Western blot. It is filed as cell-based, human. The protocol:
Cells were treated with 2 μg/ml of purified mim-1 for the indicated times, washed, lysed and 25 […] protein resolved on 10% SDS PAGE. Protein was transferred to PVDF membrane and the membranes probed with phospho-specific p42/p44 MAP kinase antibody (New England Biolabs).
Mim-1 also stimulated the increased p42/44 MAP-kinase phosphorylation in a time-dependent manner in MG63 cells. The time dependence of mim-1 activation of MAP kinase by Western analysis with the phospho specific MAP kinase antibody was tested. This antibody detects only the phosphorylated (activated) form of MAP kinase (FIG. 16). Mim-1 stimulates the time dependent activation of MAP kinase with maximal effects at 3 minutes (compare this with 2 μg/ml in FIG. 15). The concentration dependence for activation of MAP kinase was maximal at 1–2 μg/ml (not shown) similar to the effects of mim-1 on tyrosine phosphorylation (FIG. 15).
(In general: A western blot detects proteins with antibodies after separation by electrophoresis.)

The subject of a further experiment is mouse marrow macrophage. In words: Osteoclast-like cell differentiation, mouse marrow macrophage differentiation model. Type of experiment: cell-based. The settings on record: presence of M-CSF and soluble RANKL.
The next experiment deals with MDA231, breast cancer. In words: Cancer cell growth inhibition, cell counts. It is filed as cell-based, human. The settings on record: MDA231, three days, 0.5-4 μg/ml mim-1. The protocol: (§1) Cancer cells (A549, lung cancer; MDA231, Breast cancer; and AD10, ovarian cancer) were cultured for three days in the presence of the indicated concentrations of mim-1. Cells were counted in 10 random grids, and the data is plotted as Percent of Control (no added mim-1). Data are representative of 2 separate experiments.
(§2) Three cancer cell lines (A549, lung cancer; MDA231, breast cancer; and AD10, ovarian cancer) were cultured for three days in the presence of 0 (control), 0.5, 1, 2 and 4 μg/ml of mim-1. Cells were counted in 10 random grids, and the data is plotted as Percent of Control (no added mim-1).

A further experiment concerns A549, lung cancer. The experiment is described as follows: Cancer cell growth inhibition, cell counts. Type of experiment: cell-based, human. The settings on record: A549, three days, 0.5-4 μg/ml mim-1. The protocol: as §1, §2
In the next experiment the test system is AD10, ovarian cancer. In words: Cancer cell growth inhibition, cell counts. Type of experiment: cell-based, human. To be noted: AD10, three days, 0.5-4 μg/ml mim-1. The method, then:
as §1, §2

B1: mim-1: 35 kD osteoclast secreted chemokine-like protein, SEQ ID NO: 8, homologous with Lect2 (protein, listed as Gallus gallus)
chain: MPALSLIALLSLVSTAFARQWEVHPPQQQGRHWAQICSGNPFNRIRGCDRYGCGNYGASRQGKGEKHKGVDVICTDGSIVYAPFWGQLSGPIRFFHNGNAIDDGVQISGSGYCVKLVCIHPIRYHGQIQKGQQLGRMLPMQKVFPGIVSHIHVENCDQSDPTHLLRPIPDISPPFPQQDAHWAVVCAGNPTNEIRGCKDYGCGYFGAPRRNGKGEKHKGVDVICADGATVYAPFSGELSGPVKFFHNGNAIDDGVGIRGSGFCVKLLCIHPIRYNGRISKGQVLGRMLPMQRVFPGIISHIHVENCDRSDPTSNLERGKGESEMEV
modifications: amino acid sequence of mim-1 protein
Regarding B1, the “cbfal binding above control levels” value in experiment [1] (20 ng/ml mim-1, 2 hrs) is given as about 2 fold. The “concentration to stimulate cbfal binding lower than that to stimulate tyrosine phosphorylation” value in experiment [1] (20 ng/ml versus tyrosine phosphorylation) was 5–10 fold. Moreover, the “time of maximal cbfal binding” value in [1] (2 μg/ml mim-1) amounted to 2 h. Also, in experiment [1] (2 μg/ml mim-1, MG63 cells), the “increase in binding of cbfal transcription factor to osteocalcin oligonucleotide probe” value is “five-fold”. For the same molecule, the “decrease in cbfal binding from maximum” value in [1] (2 μg/ml mim-1, by 4 hours) is about 30%. The “Vitamin D receptor binding to the VDRE” value in experiment [2] is “stimulated Vitamin D receptor binding to the VDRE in a time dependent manner”. In addition, the “proportion of CD14+ cells” value with human bone marrow cells was “increase in the proportion of cells that are CD14^+”. For the same molecule, the “concentration of maximal effect on mineralization” value with MC3T3-E1 cells amounted to 0.5 µg/mL. Besides, the “effect on cell proliferation” value in the experiment with mesenchymal stem cells is given as “no effect”. The “concentration of maximal effect on mesenchymal stem cell migration” value in experiment [3] (4 hours, purified mim-1 in bottom chamber) is “approximately 100 ng/ml”. The “concentration to stimulate migration lower than that to stimulate tyrosine phosphorylation” value in experiment [3] (migration versus tyrosine phosphorylation) is “five- and ten-fold”. The “time of maximal activation of MAP kinase” value in experiment [4] (2 μg/ml mim-1) is 3 min. Also, the “concentration of maximal activation of MAP kinase” value in experiment [4] (not shown) is 1 to 2 µg/mL. In the experiment with mouse marrow macrophage, the osteoclast-like cell differentiation entry is recorded as “effectively blocks osteoclast-like cell differentiation”. Also, the “inhibition of cell growth” value with MDA231, breast cancer was “concentration dependent inhibition of cell growth”; with A549, lung cancer, “concentration dependent inhibition of cell growth”; in the experiment on AD10, ovarian cancer it was “concentration dependent inhibition of cell growth”.
